Experimental data taken from US20200121712A1, “AGENT TO BE APPLIED TO OPHTHALMIC DEVICE” (SEIKAGAKU CORPORATION, priority 2015, published 2020).

Tested on: mucin
Experiment: Viscosity increasing effect by interaction with mucin (rotatory viscometer)
Format: physicochemical
Conditions: for rate of increase in viscosity (increase in value of viscosity divided by viscosity of sample 3): 1.0 w/v % mixed with 20 w/v % mucin solution (final concentration 0.5 w/v %)
Experimental: In general, with respect to a film of a lubricant formed on a friction surface for reducing friction under the maintained state of fluid friction, the higher the viscosity of the lubricant, the higher the stability of the film of the lubricant. Therefore, the friction reducing effect of the cinnamic acid derivative was evaluated using, as an index, the increase in viscosity due to the interaction of the derivative with mucin contained in the tear fluid.
HA-3APC prepared in Example 1 was dissolved in PBS (pH 7.4) to thereby prepare solutions having concentrations of 1 w/v %, 0.5 w/v % and 0.25 w/v %.
Similarly, HA was dissolved in PBS (pH 7.4) to thereby prepare an HA solution having a concentration of 1 w/v %.
0.4 mL of each of these samples (1 w/v % HA-3APC, 0.5 w/v % HA-3APC, 0.25 w/v % HA-3APC and 1 w/v % HA) having added thereto 0.4 mL of 20 w/v % mucin was sample 1 for measurement.
A sample of 0.4 mL of 20 w/v % mucin having added thereto 0.4 mL of PBS was sample 2 for measurement.
A sample prepared in substantially the same manner as in sample 1 for measurement except that 0.4 mL of PBS was added in place of mucin was sample 3 for measurement.
Each sample for measurement was subjected, immediately after thorough mixing, to measurement of viscosity (shear rate: 100 S^−1, temperature: 35° C.) using a rotatory viscometer (ADVANCED RHEOMETER (TA Instruments)), and increase in value of viscosity was obtained by the following formula.
Increase in value of viscosity=μ1−μ2−μ3
μ1: Viscosity of sample 1 for measurement
μ2: Viscosity of sample 2 for measurement
μ3: Viscosity of sample 3 for measurement
Comparison of the strength of the interaction with mucin was carried out between HA and HA-3APC based on the standardized rate of increase in viscosity obtained by dividing the increase in value of viscosity with the viscosity of sample 3 for measurement. Such a means for standardization is frequently used in comparison of interactions with mucin among different test substances (for example, J. Ocul Pharmacol Ther. 2007.23(6): 541-50).

Row | Substance | increase in value of viscosity (strength of interaction with mucin) (0.25, 0.5 and 1.0 w/v % mixed with 20 w/v % mucin (final 0.125, 0.25, 0.5 w/v %), shear rate 100 S^-1, 35° C.) | rate of increase in viscosity relative to that of HA (1.0 w/v % (final concentration 0.5 w/v %) with 20 w/v % mucin) | rate of increase in viscosity (increase in value of viscosity divided by viscosity of sample 3) (shear rate 100 S^-1, 35° C.)
1 | HA having covalently bonded thereto a cinnamic acid aminopropyl ester [HA-3APC] | increased depending on the concentration | about 1.5 times | 3.65
2 | hyaluronic acid [HA, reference compound] | – | – | 2.49
